30 sequences from the nanobody polyreactivity screen of Harvey et al. (2022) can be followed below.

The data set in a line: yeast display, Sf9 membrane polyspecificity reagent, FACS + sequencing; frameworks hold sequencing errors. The essentials: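 Nanobodies came from a synthetic yeast display library in Saccharomyces cerevisiae BJ5465, induced with galactose for 36–48 hours and stained for 1 hour at 4 °C with 10% biotinylated, detergent-solubilized Sf9 membrane reagent. Cells were enriched on streptavidin microbeads and then FACS-sorted, with low and high (top ~1%) gates set on anti-HA fluorescence for expression and streptavidin fluorescence for reagent binding. Each polyreactivity label reflects the gate a clone came from. Genes were amplified by colony PCR, sequenced by MiSeq 2 × 250 and filtered by CDR length.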
As for “QVQLVESGGGLVQAGGSLRLSCAASGSIFDYKAMGWYRQAPGKERELVAAIDSSDTGTYYADSVKGRFTISRDNAKNTVYLQMNSLKPEDTAVYYCAAEYGWWEGSTTYLRYDYWGQGTQVTVSS”, the “polyreactivity (PSR sort gate)” value is reported as “low polyreactivity”.

For “QVQLVESGGGLVQAGGSLRLSCAASGSIFDYNAMGWYRQAPGKVRELVAAITGSGGSTYYADSVKGRFTISRDNAKNTVYLQMNSLTAEDTAVYYCAAPVDYRRYEYEYWGQGTQVTVSS”, the “polyreactivity (PSR sort gate)” value is reported as “low polyreactivity”. For “QVQLVESGGGLVQAGGSLRLSCAASGSIFDYNGMGWYRQAPGKERELVATITLSTARTYYADSVKGRFTISRDNAKNTVYLQMNSLKPEDTAVYYCAATRLTPYIYGGKYNYWGQGTQVTVSS” the value was “high polyreactivity”; for “QVQLVESGGGLVQAGGSLRLSCAASGSIFDYNTMGWYRQAPGKEREFVAAISSSGGGTSYADSVKGRFTISRDNAKNTVYLQMNSLKPEDTAVYYCAALIKLTPYQRQYWKYRAYYYWGQGSQVTVSS”, “high polyreactivity”.

As to “QVQLVESGGGLVQAGGSLRLSCAASGSIFDYYAMGWDRQAPGKERELVAAISWSGGSTYYADSVKGRFTISRDNAKNTVYLHMNSLNPEDTAVYYCAADEYDYYHSRWYEYWGQGTQVTVSS”, the “polyreactivity (PSR sort gate)” value was “high polyreactivity”. On to “QVQLVESGGGLVQAGGSLRLSCAASGSIFDYYAMGWYRQAPGKERELVAAIDNPDSTNYADSVKGRFTISRDNAKNTVYFQMNSLKPEDTAVYYCNADYWRYISSYDYWGQGTQVTVSS”, for which the “polyreactivity (PSR sort gate)” value is “low polyreactivity”. For “QVQLVESGGGLVQAGGSLRLSCAASGSIFDYYAMGWYRQAPGKERELVATITSGVSTYYADSVKGRFTISRDNAKNTVYLQMNSLKPEDTAVYYCARDYAKSQDLYKYDYWGQGTQVTVSS” the value was “low polyreactivity”; for “QVQLVESGGGLVQAGGSLRLSCAASGSIFDYYTMGWYRQAPGKERELVASITQSGGSTYYADSVKGRFTISRDNAKNTVYLQMNSLKPEDTAVYYCAADFSIVKMDYWGQGTQVTVSS”, “low polyreactivity”. Then “QVQLVESGGGLVQAGGSLRLSCAASGSIFEANVMGWYRQAPGKERELVASISSDGTSTYYADSVKGRFTISRDNAKNTVYLQMNSLKPEDTAVYYCNADAGAGWYPDSKYDYDYWGQGTQVTVSS”, with “low polyreactivity”; and “QVQLVESGGGLVQAGGSLRLSCAASGSIFEFNTMGWYRQAPGKERELVAAISSSGGRTYYADSVKGRFTISRDNAKNTVYLQMNSLKPEDTAVYYCNAVSYYGARYDYWGQGTQVTVSS”, with “high polyreactivity”; and “QVQLVESGGGLVQAGGSLRLSCAASGSIFEGNGMGWYRQAPGKERELVAAITFRSGSTYYADSVKGRFTISRDNAKNTVYLLMNSLKPADTAVYYCAAHESYQVSAYDYWGQGSQVTVSS”, with “low polyreactivity”. For the sequence “QVQLVESGGGLVQAGGSLRLSCAASGSIFEGNGMGWYRQAPGKERELVAAITFRSGSTYYADSVKGRFTISRDNAKNTVYLQMNSLKPEDTAVYYCAADEYYEVSAYDYWGQGTQVTVSS”, the “polyreactivity (PSR sort gate)” value is reported as “low polyreactivity”. For “QVQLVESGGGLVQAGGSLRLSCAASGSIFEGYAMGWYRQAPGKERELVAAISRSGGSTYYADSVKGRFPISRDNAKNTVYLQMNSLKPEDTAVYYCAARKAIDYQGRHDHWGQGTQVTVSS” the value was “low polyreactivity”. Turning to “QVQLVESGGGLVQAGGSLRLSCAASGSIFEGYAMGWYRQAPGKERELVARITSDDDSTYYADSVKGRFTISRDNAKNTVYLQMNSLKPEDTAVYYCNADYYCTSLAMDSWGQGTQVTVSS”, the “polyreactivity (PSR sort gate)” value was “low polyreactivity”. For “QVQLVESGGGLVQAGGSLRLSCAASGSIFEGYVMGWYRPAPGKVRELVAAISWSGGSTYYADSVKGRFTISRDNAKNTVYLQMNSLKPEDTAVYYCAAYGYDRYGRTRYNSWGQGTQVTVSS” the value was “high polyreactivity”. For “QVQLVESGGGLVQAGGSLRLSCAASGSIFEIYDMGWYRQAPGKERELVASIRTSGGSTYYAESVKGRFTISRDNAKNTVYLLMNSLKPEDTAVYYCATGWSWYHPDYDYWGQGTQVTVSS” the value was “low polyreactivity”; for “QVQLVESGGGLVQAGGSLRLSCAASGSIFELYAMGWYRQAPGKDRELVASITWSSSNTHYADSVKGRFTISRDNAKNTVYLQMNSMKPEDTAVYYCAKDVLYGQFDGDSWGQGNQVTVSS”, “low polyreactivity”; for “QVQLVESGGGLVQAGGSLRLSCAASGSIFELYAMGWYRQAPGKERELVAAISSTGGRTYYADSVKGRFTISRDNAKNTVYLQMNSLKPEDTAVYYCNKVWPRVHPWNYDYWGQGTQVTVSS”, “high polyreactivity”. “QVQLVESGGGLVQAGGSLRLSCAASGSIFENYAMGCYRQAPGKERELVAAISSSGDSTYYADSVKGRFTISRDNAKNTVYLQMNSLKPEDTAVYYCAKGYRRVYGPFYYWGQVTQVTVSS”: the “polyreactivity (PSR sort gate)” value is listed as “low polyreactivity”. With “QVQLVESGGGLVQAGGSLRLSCAASGSIFEQNAMGWYRQAPGKERELVAAITWSGDSTYYADSVKGRFTISRDNAKNTVYLQMNSLKPEDTAVYYCAKEFGGTKRYGWYNYWGQGTQVTVSS”, the “polyreactivity (PSR sort gate)” value is “low polyreactivity”. Then “QVQLVESGGGLVQAGGSLRLSCAASGSIFERNAMGWYRQAPGKERELVAVITGSGGSTYYADSVKGRFTISRDNAKNTVYLQMNSLKPEDTAVYYCAAPVHTASGRWVPGYYYWGQGTQVTVSS”, with “high polyreactivity”; and “QVQLVESGGGLVQAGGSLRLSCAASGSIFERYAMGWYRQAPGKERELVAAITWTGGSTYYADSVKGRFTISRDNAQNTVYLQMNSLKPEDTAVYYCAADYLYPLWGWYDYWGQGTQVTVSS”, with “low polyreactivity”; and “QVQLVESGGGLVQAGGSLRLSCAASGSIFESNAMGWYRQAPGKERELVADITYRGTRTYYADSVKGRFTISRDNAKNTVYLQMNSLKPEDTAVYYCAVWQDHYDWGQGTQVTVSS”, with “low polyreactivity”. Take “QVQLVESGGGLVQAGGSLRLSCAASGSIFESYAMGWYRQAPGKEREFVAAISDSGADTYYADSVKGRFTISRDNAKNTVYLQMNSLKPEDTAVYYCNADKEFAVLGQGMDYWGQGTQVTVSS”: the “polyreactivity (PSR sort gate)” value is on record as “low polyreactivity”. As for “QVQLVESGGGLVQAGGSLRLSCAASGSIFESYAMGWYRQAPGKERELVAAIDSGDSTYYADSVKGRFTISRDNAKNTVYLQMNSLKPEDTAVYYCAAGYLFLKRIWQSRMDYWGQGTQVTVSS”, the “polyreactivity (PSR sort gate)” value is given as “low polyreactivity”. Then “QVQLVESGGGLVQAGGSLRLSCAASGSIFESYAMGWYRQAPGKERELVAAITKRGGSTYYADSVKGRFTISRDNAKYTVYLQMNSLKPEDTAVYYCNARWPGIGPIYDYWGQGSQVTVSS”, with “low polyreactivity”. For “QVQLVESGGGLVQAGGSLRLSCAASGSIFESYAMGWYRQAPGKERELVAAITSSGDSTYYADSVKGRFTISRDNAKNTVYLQMNSLKPEDTAVDYCAKRVPTYISTADWGSRYDYWGQGTQVTVSS” the value was “low polyreactivity”; for “QVQLVESGGGLVQAGGSLRLSCAASGSIFEVNAMGWYTQAPGKERELVATITYSGGSTYYADSVKGRFTISRDNAKNTVYLQMNSLKPEDTAVYYCATDYVDWELYIYDYWGQGTQVTVSS”, “low polyreactivity”.

Regarding “QVQLVESGGGLVQAGGSLRLSCAASGSIFEWYAMGWYRQAPGKERELVAAINSGGSTYYADSVQGRFTISRDNAKNTVYLQMNSLKPEDTAVYYCNYDTLLQDRLGDWYDYDYWGQGTQVTVSS”, the “polyreactivity (PSR sort gate)” value is reported as “low polyreactivity”. Then “QVQLVESGGGLVQAGGSLRLSCAASGSIFEWYAMGWYRQEPGKERELVADITYNGGSTYYADSVKGRFTISRDNAKNTVYLQMNSLKPEDSAVYYCNKDIERYVSIYDSWGQGTQVTVSS”, with “low polyreactivity”.
